PMC7437470

Tests used:
[1] = molecular target: Porcine Kallikrein (porcine)
[2] = molecular target: Porcine Kallikrein (porcine); test: enzyme inhibition kinetics (Morrison equation); serial dilution of the serpin, pre-incubated with the protease before the fluorogenic substrate; kallikrein 15 nM with Gly-Pro-Arg-NHMec 9.1 uM, chymotrypsin 2 ug/mL with Ala-Ala-Pro-Phe-NHMec 42.9 uM; 37°C; sodium acetate buffer pH 7.0; Ki from apparent Ki; triplicate
[3] = molecular target: Bovine α-Chymotrypsin (bovine); test: as above
[4] = molecular target: Human Cathepsin G (human) (UniProt P08311)
UniProt P08311, sequence (P08311 21-244): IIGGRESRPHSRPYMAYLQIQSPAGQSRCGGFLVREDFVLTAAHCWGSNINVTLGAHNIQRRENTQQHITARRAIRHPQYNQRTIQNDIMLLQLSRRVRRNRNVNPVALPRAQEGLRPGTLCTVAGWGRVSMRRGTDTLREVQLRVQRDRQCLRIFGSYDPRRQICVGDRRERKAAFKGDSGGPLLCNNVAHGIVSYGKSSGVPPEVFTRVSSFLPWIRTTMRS

Human Chymase (human) = Human Chymase (human) (UniProt P23946)
UniProt P23946, sequence (P23946 22-247): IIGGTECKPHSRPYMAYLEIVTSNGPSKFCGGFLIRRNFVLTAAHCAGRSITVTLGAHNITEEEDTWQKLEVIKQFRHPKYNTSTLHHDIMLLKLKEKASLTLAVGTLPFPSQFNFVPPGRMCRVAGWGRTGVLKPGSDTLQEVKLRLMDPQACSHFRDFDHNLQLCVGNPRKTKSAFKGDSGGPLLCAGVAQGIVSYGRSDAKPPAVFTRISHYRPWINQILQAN

[5] = molecular target: Human Neutrophil elastase (human) (UniProt P08246)
UniProt P08246, sequence (P08246 30-267): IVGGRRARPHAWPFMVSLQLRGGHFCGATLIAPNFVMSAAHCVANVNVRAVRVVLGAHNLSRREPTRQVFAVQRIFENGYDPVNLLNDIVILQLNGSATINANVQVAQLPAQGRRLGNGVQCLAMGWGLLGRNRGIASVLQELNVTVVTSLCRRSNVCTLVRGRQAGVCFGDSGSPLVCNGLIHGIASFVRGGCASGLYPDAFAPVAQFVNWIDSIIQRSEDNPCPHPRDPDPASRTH

Porcine Kallikrein (porcine), sequence (P00752 other isoform, or with tags, fused parts or gaps): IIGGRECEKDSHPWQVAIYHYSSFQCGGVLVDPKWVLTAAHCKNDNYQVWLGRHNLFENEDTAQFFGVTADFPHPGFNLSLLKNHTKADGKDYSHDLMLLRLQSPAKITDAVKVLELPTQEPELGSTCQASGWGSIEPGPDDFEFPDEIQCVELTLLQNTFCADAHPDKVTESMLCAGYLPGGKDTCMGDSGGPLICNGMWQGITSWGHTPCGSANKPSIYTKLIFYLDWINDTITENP

Q: Which inhibition of kallikrein (150 nM) activity on a fluorogenic substrate, rFhSrp1 at 10 and 500 nM (48% at 10 nM) [1] does the source give for “recombinant Fasciola hepatica serpin 1 (natural protein)” here?
A: Its inhibition of kallikrein (150 nM) activity on a fluorogenic substrate, rFhSrp1 at 10 and 500 nM (48% at 10 nM) is 96%.

Q: What about the Ki [2] of the same substance?
A: Its Ki is 40 nM.

Q: For “recombinant Fasciola hepatica serpin 2 (natural protein)”, which Ki [3] is on record?
A: The Ki was 0.07 nM.

Q: And the inhibition of cathepsin G (100 nM) activity on a fluorogenic substrate, rFhSrp2 at 10 and 500 nM (only slightly changed at 10 nM) [4]?
A: The inhibition of cathepsin G (100 nM) activity on a fluorogenic substrate, rFhSrp2 at 10 and 500 nM (only slightly changed at 10 nM) was 97.5%.

Q: And the inhibition of chymase (0.6 uM) activity on a fluorogenic substrate, rFhSrp2 at 10 and 500 nM (only slightly changed at 10 nM) (Human Chymase (human))?
A: Its inhibition of chymase (0.6 uM) activity on a fluorogenic substrate, rFhSrp2 at 10 and 500 nM (only slightly changed at 10 nM) is 100%.

Q: What about the inhibition of neutrophil elastase (50 nM) activity on a fluorogenic substrate, rFhSrp2 at 10 and 500 nM (only slightly changed at 10 nM) [5] of the same substance?
A: The inhibition of neutrophil elastase (50 nM) activity on a fluorogenic substrate, rFhSrp2 at 10 and 500 nM (only slightly changed at 10 nM) was 99.9%.
